Test system: NCI-H292 and Calu-6 tumor tissue
Assay: In vitro binding of biotinylated AP39 to frozen sections of tumor tissue (ExtrAvidin / DAB staining)
Set-up: species or system human
Conditions: frozen sections (5-10 μm); NCI-H292 (FIG. 1A) compared to Calu-6 (FIG. 1B)
Experimental: Binding studies were performed in two human NSCLC tumor models in mice: NCI-H292 which is an erlotinib-sensitive epithelial-type model, and Calu-6 which is an erlotinib-resistant mesenchymal-type model.
TCEP-reduced AP39 was biotinylated using 3-(N-maleimidopropionyl) biocytin (Sigma). The in vitro binding of biotinylated AP39 to frozen sections (5-10 μm) of NCI-H292 and Calu-6 tumor tissue was determined by utilizing ExtrAvidin (Sigma) and Liquid DAB Substrate Pack (BioGenex) according to the protocols of the manufacturers.

B1: biotinylated AP39: TCEP-reduced AP39 biotinylated using 3-(N-maleimidopropionyl) biocytin (conjugate)
scFv: EVQLLESGGGLVQPGGSLRLSCAASGFTFSSFSMSWVRQAPGKGLEWVSSISGSSGTTYYADSVKGRFTISRDNSKNTLYLQMNSLRAEDTAVYYCAKPFPYFDYWGQGTLVTVSSGDGSSGGSGGASTGEIVLTQSPGTLSLSPGERATLSCRASQSVSSSFLAWYQQKPGQAPRLLIYYASSRATGIPDRFSGSGSGTDFTLTISRLEPEDFAVYYCQQTGRIPPTFGQGTKVEIKGGGCA
- binding to tumor tissue, NCI-H292 compared to Calu-6: more extensive binding

— patent US20090208410A1, “ED-B FIBRONECTIN AS STRATIFICATION MARKER FOR ANTI-TUMOR DRUGS” (priority 2007, published 2009)
